The record followed here is PMC9482650, “Quantitative fragmentomics allow affinity mapping of interactomes” (Nature Communications, 2022).

By pKd is commonly meant the negative decadic logarithm of the Kd, by convention in mol/L.

Among the targets are CARD14, Q9BXL6; CNKSR3, Q6P9H4; DVL2, O14641; GIPC3, Q8TF64; GRIP2_2, Q9C0E4; LIMK1, P53667; LMO7, Q8WWI1; LNX1_4, Q8TBB1; MAGI1_3, Q96QZ7; MAGI1_4, Q96QZ7; PARD3_1, Q8TEW0; PDLIM4, P50479.
Assay in all cases: holdup assay
What all share (parameters): key: below the threshold = too weak to quantify, mostly under pKd 3.1 to 4

The next test has as its target T1, CNKSR1, Q969H4.
T1 sequence (Q969H4 191-295, limits assumed, looked up): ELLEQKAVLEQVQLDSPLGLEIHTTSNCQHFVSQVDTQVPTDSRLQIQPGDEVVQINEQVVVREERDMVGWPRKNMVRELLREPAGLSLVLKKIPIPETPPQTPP

A further test concerns the target T2, DVL1, O14640.
T2 sequence (O14640 246-333, limits assumed, looked up): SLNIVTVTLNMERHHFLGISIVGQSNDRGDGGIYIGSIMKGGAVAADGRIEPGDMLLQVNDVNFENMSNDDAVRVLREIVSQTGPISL

A further test has as its target T3, GIPC1, O14908.
T3 sequence (O14908 128-223, limits assumed, looked up): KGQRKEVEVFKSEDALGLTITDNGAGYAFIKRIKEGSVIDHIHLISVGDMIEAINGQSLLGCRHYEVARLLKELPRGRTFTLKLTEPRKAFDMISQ

The target of a further test is T4, GRIP1_1, Q9Y3R0.
T4 sequence (Q9Y3R0 48-146, limits assumed, looked up): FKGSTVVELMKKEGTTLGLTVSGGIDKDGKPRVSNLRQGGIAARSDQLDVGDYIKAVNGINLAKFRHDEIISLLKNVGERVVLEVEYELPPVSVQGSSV

The target in the next test is T5, LNX2_1, Q8N448.
T5 sequence (Q8N448 228-328, limits assumed, looked up): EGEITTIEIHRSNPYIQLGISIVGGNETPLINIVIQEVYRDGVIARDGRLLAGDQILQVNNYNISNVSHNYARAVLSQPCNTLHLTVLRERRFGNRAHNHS

Another test concerns the target T6, MLLT4, P55196.
T6 sequence (P55196 1002-1103, limits assumed, looked up): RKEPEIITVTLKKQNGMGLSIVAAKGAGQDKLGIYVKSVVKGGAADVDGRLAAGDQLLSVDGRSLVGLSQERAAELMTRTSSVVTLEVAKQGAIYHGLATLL

In another test the target is T7, MPDZ_13, O75970.
T7 sequence (O75970 1982-2070, limits assumed, looked up): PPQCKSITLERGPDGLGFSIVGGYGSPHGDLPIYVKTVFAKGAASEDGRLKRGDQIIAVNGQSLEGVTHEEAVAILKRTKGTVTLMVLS

The target in a further test is T8, PDZD7_1, Q9H5P4.
T8 sequence (Q9H5P4 81-178, limits assumed, looked up): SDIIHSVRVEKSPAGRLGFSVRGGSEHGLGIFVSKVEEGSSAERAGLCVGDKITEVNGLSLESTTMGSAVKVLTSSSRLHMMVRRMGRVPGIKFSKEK

The target in the next test is T9, PDZD7_2, Q9H5P4.
T9 sequence (Q9H5P4 205-303, limits assumed, looked up): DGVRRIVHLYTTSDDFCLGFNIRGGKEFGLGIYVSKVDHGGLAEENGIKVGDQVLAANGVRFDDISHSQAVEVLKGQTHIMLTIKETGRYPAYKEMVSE

The next test has as its target T10, PTPN13_4, Q12923.
T10 sequence (Q12923 1783-1878, limits assumed, looked up): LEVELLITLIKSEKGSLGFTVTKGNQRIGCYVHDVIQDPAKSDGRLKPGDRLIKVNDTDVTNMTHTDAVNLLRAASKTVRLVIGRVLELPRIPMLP

The target of the next test is T11, SHROOM4, Q9ULL8.
T11 sequence (Q9ULL8 5-102, limits assumed, looked up): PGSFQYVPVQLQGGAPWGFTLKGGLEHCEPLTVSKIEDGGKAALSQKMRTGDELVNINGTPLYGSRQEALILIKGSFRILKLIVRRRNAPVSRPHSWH

Another test addresses T12, USH1C_3, Q9Y6N9.
T12 sequence (Q9Y6N9 447-547, limits assumed, looked up): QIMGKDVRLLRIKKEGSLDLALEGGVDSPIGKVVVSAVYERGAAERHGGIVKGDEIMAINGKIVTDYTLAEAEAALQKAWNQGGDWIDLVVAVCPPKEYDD

[1] abbreviates: plain residues with an end cap or a label only (N-terminal biotin on a linker: (peg)3).
The mark [2] stands for this setting: modified: phospho on S at position -3 from the C-terminal residue.
[3] abbreviates: modified: acetyl on K at position -1 from the C-terminal residue.

Chain of MAGI1_3, Q96QZ7 (Q96QZ7 638-725): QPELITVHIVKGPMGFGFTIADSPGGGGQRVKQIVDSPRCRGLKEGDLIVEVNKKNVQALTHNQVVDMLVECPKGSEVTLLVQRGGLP
Chain of PDLIM4, P50479 (P50479 1-83): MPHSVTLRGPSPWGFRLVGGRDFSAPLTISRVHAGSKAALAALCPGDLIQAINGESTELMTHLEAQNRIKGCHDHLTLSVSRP
Chain of PARD3_1, Q8TEW0 (Q8TEW0 264-372): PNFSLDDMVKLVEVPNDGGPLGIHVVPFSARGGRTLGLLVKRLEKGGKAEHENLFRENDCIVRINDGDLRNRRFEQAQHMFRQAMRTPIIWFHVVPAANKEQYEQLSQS
Chain of MAGI1_4, Q96QZ7 (Q96QZ7 other isoform, or with tags, fused parts or gaps): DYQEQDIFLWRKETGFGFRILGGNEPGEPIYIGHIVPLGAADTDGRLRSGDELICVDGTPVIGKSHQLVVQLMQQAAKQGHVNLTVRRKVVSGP
Chain of LIMK1, P53667 (P53667 155-268): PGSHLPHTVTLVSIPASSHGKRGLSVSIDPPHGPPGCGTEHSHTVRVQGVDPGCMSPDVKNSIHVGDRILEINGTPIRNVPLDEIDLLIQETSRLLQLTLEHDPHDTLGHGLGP
Chain of GRIP2_2, Q9C0E4 (Q9C0E4 137-245): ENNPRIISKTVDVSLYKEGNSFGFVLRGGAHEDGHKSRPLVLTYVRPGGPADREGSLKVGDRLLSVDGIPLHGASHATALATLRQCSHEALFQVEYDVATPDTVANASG
Chain of DVL2, O14641 (O14641 260-359): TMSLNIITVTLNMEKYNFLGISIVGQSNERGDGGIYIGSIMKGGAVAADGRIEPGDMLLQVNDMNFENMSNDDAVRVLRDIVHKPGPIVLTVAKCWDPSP
Chain of LNX1_4, Q8TBB1 (Q8TBB1 631-726): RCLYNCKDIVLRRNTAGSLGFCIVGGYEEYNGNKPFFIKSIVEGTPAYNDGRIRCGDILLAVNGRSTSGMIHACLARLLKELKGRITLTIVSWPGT
Chain of GIPC3, Q8TF64 (Q8TF64 107-202): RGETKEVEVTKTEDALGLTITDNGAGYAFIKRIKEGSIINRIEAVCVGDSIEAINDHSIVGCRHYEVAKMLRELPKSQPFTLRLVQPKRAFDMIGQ
Chain of CARD14, Q9BXL6 (Q9BXL6 558-663): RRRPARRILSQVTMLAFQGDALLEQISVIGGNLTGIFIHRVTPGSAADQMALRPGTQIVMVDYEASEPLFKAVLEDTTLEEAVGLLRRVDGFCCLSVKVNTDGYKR
Chain of LMO7, Q8WWI1 (Q8WWI1 1037-1138): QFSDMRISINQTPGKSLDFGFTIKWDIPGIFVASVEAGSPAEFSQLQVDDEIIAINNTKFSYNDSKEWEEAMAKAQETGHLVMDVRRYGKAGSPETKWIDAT
Chain of CNKSR3, Q6P9H4 (Q6P9H4 203-303): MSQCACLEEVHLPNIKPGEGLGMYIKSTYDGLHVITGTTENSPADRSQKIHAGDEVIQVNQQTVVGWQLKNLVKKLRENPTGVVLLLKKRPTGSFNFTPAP

Consider YDEPTTTTSVPL [SARS-Cov2-3a, P0DTC3], for which the pKd entry with CARD14, Q9BXL6 (setting [1]) is listed as “below the threshold”; with CNKSR1, Q969H4 (setting [1]), “below the threshold”; with CNKSR3, Q6P9H4 (setting [1]), “below the threshold”; with DVL1, O14640 (setting [1]) it was “below the threshold”; with DVL2, O14641 (setting [1]), “below the threshold”; with GIPC1, O14908 (setting [1]), “below the threshold”. For the same molecule, the pKd result is listed as “below the threshold” with GIPC3, Q8TF64 (setting [1]); “below the threshold” in the test with GRIP1_1, Q9Y3R0 (setting [1]); “below the threshold” in the test with GRIP2_2, Q9C0E4 (setting [1]); “below the threshold” with LIMK1, P53667 (setting [1]); “below the threshold” in the test with LMO7, Q8WWI1 (setting [1]); “below the threshold” in the test with LNX1_4, Q8TBB1 (setting [1]). For the same molecule, the pKd result with LNX2_1, Q8N448 (setting [1]) was “below the threshold”; with MAGI1_3, Q96QZ7 (setting [1]), “below the threshold”; with MAGI1_4, Q96QZ7 (setting [1]), “below the threshold”; in the test with MLLT4, P55196 (setting [1]), “below the threshold”; in the test with MPDZ_13, O75970 (setting [1]), “below the threshold”; in the test with PARD3_1, Q8TEW0 (setting [1]), 3.98. Further, the pKd result was “below the threshold” with PDLIM4, P50479 (setting [1]); “below the threshold” with PDZD7_1, Q9H5P4 (setting [1]); “below the threshold” with PDZD7_2, Q9H5P4 (setting [1]); “below the threshold” with PTPN13_4, Q12923 (setting [1]); “below the threshold” in the test with SHROOM4, Q9ULL8 (setting [1]); “below the threshold” with USH1C_3, Q9Y6N9 (setting [1]).
Take RRVRKLPSTTL [RPS6KA1_-3P, Q15418]: the pKd result in the test with CARD14, Q9BXL6 (setting [2]) is “below the threshold”; with CNKSR1, Q969H4 (setting [2]), 3.49; in the test with CNKSR3, Q6P9H4 (setting [2]), “below the threshold”; in the test with DVL1, O14640 (setting [2]), “below the threshold”; in the test with DVL2, O14641 (setting [2]), “below the threshold”; with GIPC1, O14908 (setting [2]) it was “below the threshold”. Also, the pKd result with GIPC3, Q8TF64 (setting [2]) is on record as “below the threshold”; in the test with GRIP1_1, Q9Y3R0 (setting [2]) it was “below the threshold”; with GRIP2_2, Q9C0E4 (setting [2]) it was “below the threshold”; in the test with LMO7, Q8WWI1 (setting [2]) it was “below the threshold”; with LNX1_4, Q8TBB1 (setting [2]) it was “below the threshold”; in the test with LNX2_1, Q8N448 (setting [2]), “below the threshold”. Moreover, the pKd result is “below the threshold” in the test with MAGI1_3, Q96QZ7 (setting [2]); “below the threshold” in the test with MAGI1_4, Q96QZ7 (setting [2]); “below the threshold” with MLLT4, P55196 (setting [2]); 3.72 with MPDZ_13, O75970 (setting [2]); “below the threshold” in the test with PARD3_1, Q8TEW0 (setting [2]); 3.63 with PDLIM4, P50479 (setting [2]). Further, the pKd entry is “below the threshold” with PDZD7_1, Q9H5P4 (setting [2]); 3.49 in the test with PDZD7_2, Q9H5P4 (setting [2]); “below the threshold” with PTPN13_4, Q12923 (setting [2]); “below the threshold” with SHROOM4, Q9ULL8 (setting [2]); “below the threshold” with USH1C_3, Q9Y6N9 (setting [2]).
With DEDQHTQITKV [PTEN_Ac, P60484], the pKd with CNKSR1, Q969H4 (setting [3]) is 3.66; with DVL1, O14640 (setting [3]), “below the threshold”; with GIPC1, O14908 (setting [3]), “below the threshold”; with LIMK1, P53667 (setting [3]), “below the threshold”; in the test with LNX2_1, Q8N448 (setting [3]) it was “below the threshold”; with MAGI1_3, Q96QZ7 (setting [3]) it was 4.98. For the same molecule, the pKd with MPDZ_13, O75970 (setting [3]) was 4.29; with PARD3_1, Q8TEW0 (setting [3]), “below the threshold”; with PDLIM4, P50479 (setting [3]) it was “below the threshold”; in the test with PDZD7_1, Q9H5P4 (setting [3]), “below the threshold”; with PTPN13_4, Q12923 (setting [3]), 4.96; with SHROOM4, Q9ULL8 (setting [3]), “below the threshold”.
